Where two headings read alike, the source gives them in different places.
Experiments:
[1] = biological target: T1, human TrkB expressed on a stable cell line (human, UniProt Q16620 32-822); test: cell-based or functional assay
[2] = biological target: T1, human TrkB expressed on a stable cell …; test: cell-based or functional assay; remark: listed apart in the source

T1 sequence (Q16620 32-822): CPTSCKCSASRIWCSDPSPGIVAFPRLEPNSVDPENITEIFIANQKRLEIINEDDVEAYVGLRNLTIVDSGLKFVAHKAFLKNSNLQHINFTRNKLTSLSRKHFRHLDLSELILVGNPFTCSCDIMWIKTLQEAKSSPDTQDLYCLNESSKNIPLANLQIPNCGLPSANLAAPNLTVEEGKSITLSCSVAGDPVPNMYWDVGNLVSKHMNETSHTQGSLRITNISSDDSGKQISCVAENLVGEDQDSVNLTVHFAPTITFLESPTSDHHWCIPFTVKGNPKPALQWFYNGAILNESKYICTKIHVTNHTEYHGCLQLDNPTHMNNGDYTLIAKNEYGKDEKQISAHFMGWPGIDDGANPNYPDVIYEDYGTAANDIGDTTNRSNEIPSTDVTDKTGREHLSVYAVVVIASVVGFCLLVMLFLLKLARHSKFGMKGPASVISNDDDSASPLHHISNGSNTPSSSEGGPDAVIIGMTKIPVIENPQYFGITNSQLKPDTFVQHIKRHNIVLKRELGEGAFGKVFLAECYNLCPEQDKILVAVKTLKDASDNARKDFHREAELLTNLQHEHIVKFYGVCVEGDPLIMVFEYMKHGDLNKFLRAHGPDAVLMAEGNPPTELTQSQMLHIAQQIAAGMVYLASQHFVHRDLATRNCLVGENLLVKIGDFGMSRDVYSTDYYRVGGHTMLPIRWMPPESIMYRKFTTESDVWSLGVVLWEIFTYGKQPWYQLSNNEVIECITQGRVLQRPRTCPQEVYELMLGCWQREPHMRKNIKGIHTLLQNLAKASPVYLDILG

Row | Binder | EC50 (read off the curve), receptor tyrosine phosphorylation in trkB expressing cell line [1] [pM] | EC50 (read off the curve), receptor tyrosine phosphorylation in trkB expressing cell line [2] [pM]
1 | human NT-4/5 (mature human neurotrophin-4/5) (ligand) GVSETAPASRRGELAVCDAVSGWVTDRRTAVDLRGREVEVLGEVPAAGGSPLRQYFFETRCKADNAEEGGPGAGGGGCRGVDRRHWVSECKAKQSYVRALTADAQGRVGWRWIRIDTACVCTLLSRTGRA | ~700 | ~200
2 | 2PEG-NT4-G1S (ligand, N-terminal serine (position 1) oxidized to an aldehyde and linked to 20K-m-PEG-HZ (methoxy polyethylene glycol hydrazide, 20 kDa)) SVSETAPASRRGELAVCDAVSGWVTDRRTAVDLRGREVEVLGEVPAAGGSPLRQYFFETRCKADNAEEGGPGAGGGGCRGVDRRHWVSECKAKQSYVRALTADAQGRVGWRWIRIDTACVCTLLSRTGRA | ~1000 | 
3 | 1PEG-NT4-G1S (ligand, no PEG; N-terminal serine (position 1) treated with periodate (oxidized to an aldehyde); N-terminal serine (position 1) oxidized to an aldehyde and linked to 20K-m-PEG-HZ (methoxy polyethylene glycol hydrazide, 20 kDa)) chain 1: SVSETAPASRRGELAVCDAVSGWVTDRRTAVDLRGREVEVLGEVPAAGGSPLRQYFFETRCKADNAEEGGPGAGGGGCRGVDRRHWVSECKAKQSYVRALTADAQGRVGWRWIRIDTACVCTLLSRTGRA chain 2: SVSETAPASRRGELAVCDAVSGWVTDRRTAVDLRGREVEVLGEVPAAGGSPLRQYFFETRCKADNAEEGGPGAGGGGCRGVDRRHWVSECKAKQSYVRALTADAQGRVGWRWIRIDTACVCTLLSRTGRA | ~1000 | 
